Numbering of substitutions follows the chain as printed.
Assays:
Assay in all cases: SPR
FcγRIIIa type V = FcγRIIIa type V (human, UniProt P08637 17-208)
FcγRIIb = molecular target: T1, FcγRIIb (human, UniProt P31994 43-217)
T1 sequence (looked up): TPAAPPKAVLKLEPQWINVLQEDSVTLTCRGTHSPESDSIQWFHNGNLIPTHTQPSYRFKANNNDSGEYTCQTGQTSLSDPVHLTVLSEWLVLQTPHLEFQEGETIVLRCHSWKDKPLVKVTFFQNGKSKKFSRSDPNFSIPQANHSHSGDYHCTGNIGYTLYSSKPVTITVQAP

FcγRIIa type H = molecular target: T2, FcγRIIa type H (human, UniProt P12318 34-217)
T2 sequence (looked up): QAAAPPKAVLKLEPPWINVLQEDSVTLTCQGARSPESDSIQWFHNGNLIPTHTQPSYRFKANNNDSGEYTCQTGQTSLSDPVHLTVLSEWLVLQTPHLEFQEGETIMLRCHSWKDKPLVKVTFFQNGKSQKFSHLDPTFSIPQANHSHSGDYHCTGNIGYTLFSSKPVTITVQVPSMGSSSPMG

FcγRIa = FcγRIa (human, UniProt P12314 16-292)
FcγRIIa type R = molecular target: T3, FcγRIIa type R (human, UniProt P12318 34-217)
T3 sequence (looked up): T2 sequence (looked up) with H134R

Chain of FcγRIIIa type V (P08637 17-208 F176V): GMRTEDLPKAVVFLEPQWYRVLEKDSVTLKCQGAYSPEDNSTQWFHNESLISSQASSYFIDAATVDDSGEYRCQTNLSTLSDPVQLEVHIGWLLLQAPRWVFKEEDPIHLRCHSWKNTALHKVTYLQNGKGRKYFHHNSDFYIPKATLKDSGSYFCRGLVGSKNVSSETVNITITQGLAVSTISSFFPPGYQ
Chain of FcγRIa (P12314 16-292): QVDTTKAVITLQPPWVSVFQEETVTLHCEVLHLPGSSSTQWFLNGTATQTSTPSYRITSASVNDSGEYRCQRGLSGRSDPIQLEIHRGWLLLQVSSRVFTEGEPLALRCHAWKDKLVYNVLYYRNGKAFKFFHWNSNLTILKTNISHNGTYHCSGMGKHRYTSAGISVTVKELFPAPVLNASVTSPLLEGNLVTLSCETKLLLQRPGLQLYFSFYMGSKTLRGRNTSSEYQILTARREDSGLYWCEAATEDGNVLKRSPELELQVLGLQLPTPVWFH

B1: IL6R-BP198/IL6R-L (antibody, human IgG1, kappa)
heavy: QVQLQESGPGLVKPSETLSLTCAVSGHSISHDHAWSWVRQPPGEGLEWIGFISYSGITNYNPSLQGRVTISRDNSKNTLYLQMNSLRAEDTAVYYCARSLARTTAMDYWGEGTLVTVSSASTKGPSVFPLAPSSKSTSGGTAALGCLVKDYFPEPVTVSWNSGALTSGVHTFPAVLQSSGLYSLSSVVTVPSSSLGTQTYICNVNHKPSNTKVDKKVEPKSCDKTHTCPPCPAPDYLGGDSVFLFPPKPKDTLMISRTPEVTCVVVDVSDEDGEVKFNWYVDGVEVHNAKTKPREEQYNSTYRVVSVLTVLHQDWLNGKEYKCKVSNAALPKPIEKTISKAKGQPREPQVYTLPPSRDELTKNQVSLTCLVKGFYPSDIAVEWESNGQPENNYKTTPPVLDSDGSFFLYSKLTVDKSRWQQGNVFSCSVMHEALHNHYTQESLSLSP
light: not shown
FcγRIIIa type V
  relative binding activity: 157 % of control
FcγRIIb
  relative binding activity: 164 % of control
FcγRIIa type H
  relative binding activity: 188 % of control
FcγRIa
  relative binding activity: 104 % of control
FcγRIIa type R
  relative binding activity: 449 % of control

— US20260217793A1 (Chugai, published 2026)
